Patent US20250270343A1 (Alector, published 2025)

T1: mouse GPNMB endogenously expressed on B16F10 cells (mouse, UniProt Q99P91 23-574)
T1 construct: whole, on cells; also called moGPNMB
T1 sequence (looked up): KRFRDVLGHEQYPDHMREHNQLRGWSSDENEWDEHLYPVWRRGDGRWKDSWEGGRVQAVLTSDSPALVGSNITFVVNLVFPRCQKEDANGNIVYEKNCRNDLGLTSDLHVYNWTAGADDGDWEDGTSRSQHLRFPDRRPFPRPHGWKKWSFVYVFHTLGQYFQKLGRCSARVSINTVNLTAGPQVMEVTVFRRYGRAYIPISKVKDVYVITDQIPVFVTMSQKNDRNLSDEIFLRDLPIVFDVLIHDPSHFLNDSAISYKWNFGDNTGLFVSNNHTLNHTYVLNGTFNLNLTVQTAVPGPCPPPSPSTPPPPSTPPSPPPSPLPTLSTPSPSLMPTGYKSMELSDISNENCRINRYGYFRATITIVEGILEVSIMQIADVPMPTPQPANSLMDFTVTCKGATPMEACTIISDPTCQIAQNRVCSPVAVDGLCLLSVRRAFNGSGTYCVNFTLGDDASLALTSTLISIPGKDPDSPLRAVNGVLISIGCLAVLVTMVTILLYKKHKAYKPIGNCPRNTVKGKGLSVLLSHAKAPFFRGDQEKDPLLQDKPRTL

T2: soluble human GPNMB (recombinant extracellular domain) (human, UniProt Q14956 23-498)
T2 construct: also called huGPNMB; recombinant human GPNMB extracellular domain; not shown: C-terminal polyhistidine or Avi-His tag
T2 sequence: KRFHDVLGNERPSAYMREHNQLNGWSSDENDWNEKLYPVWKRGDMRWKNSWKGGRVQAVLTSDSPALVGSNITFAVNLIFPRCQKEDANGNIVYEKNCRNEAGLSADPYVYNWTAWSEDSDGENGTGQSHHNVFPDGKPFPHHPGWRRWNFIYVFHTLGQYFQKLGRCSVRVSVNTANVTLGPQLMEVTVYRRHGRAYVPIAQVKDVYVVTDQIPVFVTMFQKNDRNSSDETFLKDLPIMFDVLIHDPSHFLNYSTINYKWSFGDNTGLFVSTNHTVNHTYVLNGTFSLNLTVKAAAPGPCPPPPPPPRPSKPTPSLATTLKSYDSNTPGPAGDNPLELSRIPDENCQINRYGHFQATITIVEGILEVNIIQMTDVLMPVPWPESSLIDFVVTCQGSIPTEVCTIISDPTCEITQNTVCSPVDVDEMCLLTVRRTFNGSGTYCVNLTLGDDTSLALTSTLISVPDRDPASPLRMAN

T3: soluble cynomolgus GPNMB (recombinant extracellular domain) (cynomolgus, UniProt Q14956 23-499 (human entry), limits assumed)
T3 chain: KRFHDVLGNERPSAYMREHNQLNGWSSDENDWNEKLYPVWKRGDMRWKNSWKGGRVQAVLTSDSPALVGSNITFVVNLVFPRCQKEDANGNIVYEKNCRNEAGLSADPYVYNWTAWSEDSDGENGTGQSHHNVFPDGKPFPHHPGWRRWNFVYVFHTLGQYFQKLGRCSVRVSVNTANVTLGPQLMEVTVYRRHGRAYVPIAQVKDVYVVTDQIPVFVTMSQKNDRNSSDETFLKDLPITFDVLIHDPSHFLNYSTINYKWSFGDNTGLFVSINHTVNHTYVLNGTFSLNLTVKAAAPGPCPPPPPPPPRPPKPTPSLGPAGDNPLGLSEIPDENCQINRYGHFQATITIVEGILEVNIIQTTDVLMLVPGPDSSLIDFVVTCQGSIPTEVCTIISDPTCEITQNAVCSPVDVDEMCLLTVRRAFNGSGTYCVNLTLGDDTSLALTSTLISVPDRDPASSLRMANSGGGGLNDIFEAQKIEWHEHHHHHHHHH

B1: anti-GPNMB antibody GPN-01 (antibody, human IgG1, V domains shown)
VH: QVQLQQSGAELAKPGASVKLSCKASGYNFTNYCIHWVKQRPGQGLEWIGYINPSTGYTEYNQKFKDKATLTADKSSTTAYMQLSSLTSEDSAVYYCARGRYDEFTYWGQGTLVTVSA
VL: DIVLTQSPASLAVSLGQRATISCRASKSVSTSTYSYMHWYQQKPGQPPKLLIYLASNLESGVPARFSGSGSGTDFTLNIHPVEEEDAATYYCQHSRELPPTFGGGTKLEIK
notes: chimeric
B2: anti-GPNMB antibody GPN-24 (antibody, human IgG1, V domains shown)
VH: QVQLQQPGAELVKPGASVKMSCKASGYTFTSYWITWVKQRPGQGLEWIGDIHPGSGRSNYNEKFKNKATLNVDTSSSTVYMQLSSLTSEDSAVYYCARDYLFAYWGQGTLVTVSA
VL: DIQMTQSPSSLSASLGERVSLTCRASQEISGYLSWLQQKPDGTIKRLIYSTSTLDSGVPKRFSGSRSGSDYSLTISSLESEDFADYYCLQYTSSPPTFGGGTKLEIK
notes: chimeric
B3: anti-GPNMB antibody GPN-61 (antibody, human IgG1, V domains shown)
VH: DVQLQESGPGLVKPSQTVFLTCTVTGISITTGNYRWSWIRQFPGNKLEWIGYIYYSGTITYNPSLTSRTTITRDTPKNQFFLEMSSLTAEDTATYFCARDLRHWYFDVWGTGTTVTVSS
VL: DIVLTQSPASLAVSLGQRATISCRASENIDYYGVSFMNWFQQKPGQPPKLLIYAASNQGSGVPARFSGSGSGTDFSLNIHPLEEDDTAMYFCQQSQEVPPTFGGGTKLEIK
notes: chimeric
B4: anti-GPNMB antibody GPN-35 (antibody, human IgG1, V domains shown)
VH: EVQLVESGGGSVRPGRSLKLSCAAAGFTFSDYYMTWVRQAPTKGLEWVASINHDGGGTYYRDSVKGRFTISRDNARSSLYLQMDSLRSEDTGTYYCTTRAGWHWGQGVMVTVSS
VL: DIQMTQSPASLSASLGETVSIECLASEDIYNYLTWYQQKPGKSPQVLIYSASGLQDGVPSRFSGSGSGRQYSLKINGLESEDAATYFCLQDSEYPLTFGSGTKLEIK
notes: chimeric
B5: anti-GPNMB antibody GPN-37 (antibody, human IgG1, V domains shown)
VH: EVQLVESGGGLVQPGRSLKLSCAASGFTFSSKSGMAWVRQAPTKGLEWVASISNGGGDTYYRDSVKGRFTISRDNAKNTQYLQMDSLRPEDTATYYCARHRDYGYDAYFDYWGQGVMVTVSS
VL: DIQMTQSPASLSASLGETVTIECLASEDIYSSLAWYQQKPGKSPQLLIYDASSLQDGVPSRFSGSESGTQYSLEINSLQSEDAATYFCQQHHDYPYTFGAGTKLELK
notes: chimeric
B6: anti-GPNMB antibody GPN-38 (antibody, human IgG1, V domains shown)
VH: QVQLQQPGAELVRPGTSVRLSCKASGYTFTSYWIHWVKQRPGRGLEWIGVIDPSDSYTNYNQQFNVKATLTVDTSSSAAYMQLSSLTSEDSAVYYCARGLITAVNWYFDVWGTGTTVTVSS
VL: DIQMTQSPASLSTSVGEIVTITCRASENIYSYLTWYQQKQGKSPQLLVYNAKTLAEGVPSRFSGSGSGTQFSLKINSLQPEDFGTYYCQHHYGTPLTFGSGTKLEIK
notes: chimeric
B7: anti-GPNMB antibody GPN-43 (antibody, human IgG1, V domains shown)
VH: EVQLQQSGPELVKPGASVKISCKASGYTFTDYYMNWVRQSHGKSLEWIGDINPYHGGSTYNQKIKVKATLTVDKSSSTAYMELRSLTSEDSAVYYCARNWPYFDYWGQGTTLTVSS
VL: DIQMTQSPASLSASVGETVTITCRASENIYSFLVWYQQKQGKSPQLLVYNAKTLAEGVPSRFSGSGSGTQFSLKISSLQPEDFGSYYCQHHFGTPPYTFGGGTKLEIK
notes: chimeric
B8: anti-GPNMB antibody GPN-48 (antibody, human IgG1, V domains shown)
VH: QVQLQQSGPELVKPGASVKLSCRASGYGFSSFWMNWVKQRPGKGLEWIGRIYPGKGDTLYNGKFKDKATLTADESSSTAYMQLSSLTSEDSAVYFCARSIYYYDYWYFDVWDTGTTVTVSS
VL: DIVMTQSHKFMSTSVGDRVNITCKASQDVNSAIAWYQQKPGQSPKLLIYSASYRFIGVPDRFTGSGSGTGFTFTISSVQAEDLAVYYCQQHYTTPLTFGAGTKLELK
notes: chimeric
B9: anti-GPNMB antibody GPN-41 (antibody, human IgG1, V domains shown)
VH: QLQLQQSGTEVVKPGASVKIPCKASGYAFSSYWMNWVKQRPGKGLEWIGQIYPGDGDTNDNGKFEGKATLTVDKSSNTAYIQLSSLTSEDSAVYFCARSPLHLRGSMDYWGQGTSVTVSS
VL: SIVMTQTPKFLLVSAGDRVTITCKASQSVSNDVAWFQQKPGQSPELLIYSASNRYTGVPDRFTASGYGTDFTFTISAVQAEDLAVYFCQQNYYSPFTFGGGTRLEIK
notes: chimeric
B10: anti-GPNMB antibody GPN-65 (antibody, human IgG1, V domains shown)
VH: QLQLQQSGTEVVKPGASVKIPCKASGYAFSSYWMNWVKQRPGKGLEWIGQIYPGDGDTNDNGKFEGKATLTVDKSSNTAYIQLSSLTSEDSAVYFCARSPLHLRGSMDYWGQGTSVTVSS
VL: SIVMTQTPKFLLVSAGDRVTITCKASQSVSNDVAWFQQKPGQSPELLIYSASNRYTGVPDRFTGSGYGTDFTFTISTVQAEDLAVYFCQQNYYSPFTFGGGTRLEIK
notes: chimeric
B11: anti-GPNMB antibody GPN-42 (antibody, human IgG1, V domains shown)
VH: DVKLVESGEDLVKPGGSLKLSCAASGFTFSSYAMSWVRQTPEKRLEWVAYISSGGDYIYYADTVKGRFTISRDNARNTLYLQMSSLKSEDTAMYYCTRDRYYDYDVRDYYTMDYWGQGTSVTVSS
VL: DVMMTQTPLSLPVSLGDQASISCRSSQSLVHSNGNTYLHWFLQKPGQSPKLLIFRVSNRFSGVPDRFSGRGSGTDFTLKISRVEAEDLGVYFCSQTTHVPRTFGGGTTLEIK
notes: chimeric

Experiments:
[1] = target: T1, mouse GPNMB endogenously expressed on …; test: FACS, B16F10 cells
Description: Recombinant anti-GPNMB antibodies of the present disclosure were examined for their ability to bind human and/or mouse GPNMB expressed on Freestyle293-huGPNMB+ or B16F10 cells, respectively. B16F10 cells are a murine melanoma cell line from a C57BL/6J mouse that endogenously express high levels of mouse GPNMB. The antibodies were also tested for their ability to bind to a human macrophage cell line (U937 cells) engineered to express human GPNMB. Cells were harvested, plated at 100,000 cells/well in a 96-well round bottom plate, and incubated in 100 μl FACS buffer (PBS containing 2% FBS, 2 mM EDTA) containing anti-GPNMB monoclonal antibodies of the present disclosure for 30 minutes on ice. Cells were then washed and incubated in 100 ul FACS buffer containing 1 μg/ml APC-conjugated anti-human IgG secondary antibody for 30 minutes in ice. Cells were washed twice in cold FACS buffer and acquired on a BD FACS Canto. Data analysis and calculation of MFI values was performed with FlowJo (TreeStar) software version 10.0.7. […]

[2] = target: T2, soluble human GPNMB (recombinant …); test: SPR Carterra, Ab immobilized
Description: (§1) Binding kinetics of human anti-GPNMB IgG1 antibodies of the present disclosure to human, cynomolgus, and mouse GPNMB were evaluated using a Carterra LSA instrument (Carterra, Salt Lake City, UT). […] A HC200M sensor chip (Carterra) was activated using the single channel flow cell with a 7-minute injection of a 1:1:1 mixture of 100 mM MES pH 5.5, 100 mM sulfo-NHS, 400 mM EDC (all reconstituted in MES pH 5.5; 100 μl of each mixed in vial immediately before running assay). After switching to the multi-channel array flow cell, the antibodies were injected over the activated chip in a 96-spot array for 15 minutes. The remaining unconjugated active groups on the chip were then blocked by injecting 1M Ethanolamine pH 8.5 (Carterra) for 7 minutes using the single channel flow cell.
(§2) After priming with running buffer (HBS-EP+, Teknova) with 0.5 mg/ml BSA (Sigma), the immobilized anti-GPNMB antibodies were tested for their ability to bind to several forms of recombinant GPNMB extracellular domain, including human, cynomolgus, and mouse orthologs as described above. Estimates of affinity were generated by injecting each analyte over the entire antibody array using the single channel flow cell. GPNMB analytes were diluted to 2.5, 7.4, 22, 67, 200, and 600 nM in running buffer, and injected in serial from lowest to highest concentration without regeneration. Two buffer blanks were run between each series (one species per series). Data were processed and analyzed using Kinetics high-throughput kinetics analysis software (Carterra).

[3] = target: T3, soluble cynomolgus GPNMB (recombinant …); test: SPR Carterra, Ab immobilized
Description: as §1, §2

Binder	MFI fold over background [1] [fold]	Kd [2] [nM]	koff [2] [s⁻¹]	kon [2] [M⁻¹ s⁻¹]	Kd [3] [nM]	koff [3] [s⁻¹]	kon [3] [M⁻¹ s⁻¹]
B1	1	42.5	0.0038	91000	31	0.0034	110000
B2	1	8.8	0.00057	69000	8.3	0.00061	77000
B3	–	50.1	0.0035	71000	47.9	0.0041	86000
B4	15.4	21	0.0015	71000	–	–	–
B5	0.8	1	0.00011	110000	–	–	–
B6	5.1	4.92	0.00053	110000	–	–	–
B7	1.6	111	0.002	18000	–	–	–
B8	–	1.1	0.00037	330000	–	–	–
B9	15	0.441	8.2e-05	200000	–	–	–
B10	6.9	0.49	0.0001	210000	–	–	–
B11	2.6	6.1	8.3e-05	14000	–	–	–
